Starred links: 1 amine or outer side, 2 acyl side, 3 side chain; linkers in the order of their positions; H or OH if unused. Non-standard residues stand in square brackets, D forms with d. Groups on a side chain read outwards from the residue. *: point of attachment. γGlu = O=C(O)[C@H](CCC(=O)[*:2])N[*:1]; Palmitoyl = CCCCCCCCCCCCCCCC(=O)*; Ac4c = NC1(C(=O)O)CCC1; Ac3c = NC1(C(=O)O)CC1
T1: endogenous GLP-1 receptor of a murine insulinoma cell line (murine, UniProt O35659 22-463)
T1 sequence (looked up): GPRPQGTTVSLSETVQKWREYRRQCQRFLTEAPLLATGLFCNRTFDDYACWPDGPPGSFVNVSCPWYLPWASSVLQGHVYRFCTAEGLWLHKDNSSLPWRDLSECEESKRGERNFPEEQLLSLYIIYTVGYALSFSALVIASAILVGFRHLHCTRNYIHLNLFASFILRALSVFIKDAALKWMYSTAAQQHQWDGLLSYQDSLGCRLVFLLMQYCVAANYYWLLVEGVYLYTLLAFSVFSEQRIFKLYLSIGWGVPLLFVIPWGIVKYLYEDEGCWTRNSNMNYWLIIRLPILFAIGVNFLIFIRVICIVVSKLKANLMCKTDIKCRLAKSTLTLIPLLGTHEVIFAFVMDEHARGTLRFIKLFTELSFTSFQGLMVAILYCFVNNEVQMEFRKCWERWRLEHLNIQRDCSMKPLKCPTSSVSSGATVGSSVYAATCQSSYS


Columns and labels:
Test in all cases: cell-based or functional assay
[1] = target: human glucagon-like peptide 1 receptor (GLP-1R) (human, UniProt P43220 24-463)
[2] = target: T1, endogenous GLP-1 receptor of a murine …
[3] = target: human glucagon receptor (Glucagon-R) (human, UniProt P47871 26-477)
[4] = target: endogenous glucagon receptor of primary rat hepatocytes (rat, UniProt P30082 27-485)
endogenous glucagon receptor of primary rat hepatocytes, sequence (P30082 27-485): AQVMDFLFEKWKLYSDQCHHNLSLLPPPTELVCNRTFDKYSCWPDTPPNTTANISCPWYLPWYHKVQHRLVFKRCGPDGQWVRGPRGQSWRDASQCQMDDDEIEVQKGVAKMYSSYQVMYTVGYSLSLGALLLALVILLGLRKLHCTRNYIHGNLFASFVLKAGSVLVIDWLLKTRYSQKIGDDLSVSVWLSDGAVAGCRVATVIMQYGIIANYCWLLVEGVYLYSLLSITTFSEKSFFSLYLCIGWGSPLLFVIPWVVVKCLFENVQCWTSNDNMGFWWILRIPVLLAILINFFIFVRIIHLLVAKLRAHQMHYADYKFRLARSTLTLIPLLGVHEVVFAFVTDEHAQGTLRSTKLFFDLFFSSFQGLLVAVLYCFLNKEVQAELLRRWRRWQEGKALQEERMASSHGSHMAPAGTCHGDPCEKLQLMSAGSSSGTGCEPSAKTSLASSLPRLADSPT

human glucagon receptor (Glucagon-R), sequence (P47871 26-477): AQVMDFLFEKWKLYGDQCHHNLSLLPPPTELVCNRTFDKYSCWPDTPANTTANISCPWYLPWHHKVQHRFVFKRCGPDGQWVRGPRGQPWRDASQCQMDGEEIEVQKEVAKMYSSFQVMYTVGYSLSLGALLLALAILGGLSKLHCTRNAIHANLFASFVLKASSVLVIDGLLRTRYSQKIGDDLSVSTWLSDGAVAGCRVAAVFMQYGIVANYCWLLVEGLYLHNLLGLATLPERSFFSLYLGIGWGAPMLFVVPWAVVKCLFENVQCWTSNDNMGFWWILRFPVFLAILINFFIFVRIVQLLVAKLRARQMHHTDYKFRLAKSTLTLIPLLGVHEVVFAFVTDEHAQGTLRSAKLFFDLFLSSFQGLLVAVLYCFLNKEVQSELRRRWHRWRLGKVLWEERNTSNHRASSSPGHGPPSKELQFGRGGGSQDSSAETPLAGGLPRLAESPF

Binder	EC50 hGLP-1R CHO-K1 [nM] (cAMP, AlphaScreen) [1]	EC50 [nM] (cAMP in murine insulinoma cell line) [2]	EC50 hGCGR CHO-K1 [nM] (cAMP, AlphaScreen) [3]	EC50 [nM] (inhibition of glycogen synthesis rate in primary rat hepatocytes) [4]
H-HAQGTFTSDYSKYLDSK([γGlu-Palmitoyl])AAHDFVEWLLSA-NH2 [Compound 1: H-HAQGTFTSDYSKYLDS-K(Hexadecanoyl-isoGlu)-AAHDFVEWLLSA-NH2]	0.52	0.12	–	–
H-H[dA]HGTFTSDYSKYLDSK([γGlu-Palmitoyl])AAHDFVEWLLSA-NH2 (SMILES CCCCCCCCCCCCCCCC(=O)N[C@@H](CCC(=O)NCCCC[C@H](NC(=O)[C@H](CO)NC(=O)[C@H](CC(=O)O)NC(=O)[C@H](CC(C)C)NC(=O)[C@H](Cc1ccc(O)cc1)NC(=O)[C@H](CCCCN)NC(=O)[C@H](CO)NC(=O)[C@H](Cc1ccc(O)cc1)NC(=O)[C@H](CC(=O)O)NC(=O)[C@H](CO)NC(=O)[C@@H](NC(=O)[C@H](Cc1ccccc1)NC(=O)[C@@H](NC(=O)CNC(=O)[C@H](Cc1c[nH]cn1)NC(=O)[C@@H](C)NC(=O)[C@@H](N)Cc1c[nH]cn1)[C@@H](C)O)[C@@H](C)O)C(=O)N[C@@H](C)C(=O)N[C@@H](C)C(=O)N[C@@H](Cc1c[nH]cn1)C(=O)N[C@@H](CC(=O)O)C(=O)N[C@@H](Cc1ccccc1)C(=O)N[C@H](C(=O)N[C@@H](CCC(=O)O)C(=O)N[C@@H](Cc1c[nH]c2ccccc12)C(=O)N[C@@H](CC(C)C)C(=O)N[C@@H](CC(C)C)C(=O)N[C@@H](CO)C(=O)N[C@@H](C)C(N)=O)C(C)C)C(=O)O) [Compound 7: H-H-DAla-HGTFTSDYSKYLDS-K(Hexadecanoyl-isoGlu)-AAHDFVEWLLSA-NH2]	0.35	0.3	0.6	0.28
H-HSHGTFTSDYSKYLDSK([γGlu-Palmitoyl])AAHDFVEWLLSA-NH2 (SMILES CCCCCCCCCCCCCCCC(=O)N[C@@H](CCC(=O)NCCCC[C@H](NC(=O)[C@H](CO)NC(=O)[C@H](CC(=O)O)NC(=O)[C@H](CC(C)C)NC(=O)[C@H](Cc1ccc(O)cc1)NC(=O)[C@H](CCCCN)NC(=O)[C@H](CO)NC(=O)[C@H](Cc1ccc(O)cc1)NC(=O)[C@H](CC(=O)O)NC(=O)[C@H](CO)NC(=O)[C@@H](NC(=O)[C@H](Cc1ccccc1)NC(=O)[C@@H](NC(=O)CNC(=O)[C@H](Cc1c[nH]cn1)NC(=O)[C@H](CO)NC(=O)[C@@H](N)Cc1c[nH]cn1)[C@@H](C)O)[C@@H](C)O)C(=O)N[C@@H](C)C(=O)N[C@@H](C)C(=O)N[C@@H](Cc1c[nH]cn1)C(=O)N[C@@H](CC(=O)O)C(=O)N[C@@H](Cc1ccccc1)C(=O)N[C@H](C(=O)N[C@@H](CCC(=O)O)C(=O)N[C@@H](Cc1c[nH]c2ccccc12)C(=O)N[C@@H](CC(C)C)C(=O)N[C@@H](CC(C)C)C(=O)N[C@@H](CO)C(=O)N[C@@H](C)C(N)=O)C(C)C)C(=O)O) [Compound 5: H-HSHGTFTSDYSKYLDS-K(Hexadecanoyl-isoGlu)-AAHDFVEWLLSA-NH2]	0.27	0.35	0.12	0.75
H-H[Ac4c]HGTFTSDYSKYLDSK([γGlu-Palmitoyl])AAHDFVEWLLSA-NH2 (SMILES CCCCCCCCCCCCCCCC(=O)N[C@@H](CCC(=O)NCCCC[C@H](NC(=O)[C@H](CO)NC(=O)[C@H](CC(=O)O)NC(=O)[C@H](CC(C)C)NC(=O)[C@H](Cc1ccc(O)cc1)NC(=O)[C@H](CCCCN)NC(=O)[C@H](CO)NC(=O)[C@H](Cc1ccc(O)cc1)NC(=O)[C@H](CC(=O)O)NC(=O)[C@H](CO)NC(=O)[C@@H](NC(=O)[C@H](Cc1ccccc1)NC(=O)[C@@H](NC(=O)CNC(=O)[C@H](Cc1c[nH]cn1)NC(=O)C1(NC(=O)[C@@H](N)Cc2c[nH]cn2)CCC1)[C@@H](C)O)[C@@H](C)O)C(=O)N[C@@H](C)C(=O)N[C@@H](C)C(=O)N[C@@H](Cc1c[nH]cn1)C(=O)N[C@@H](CC(=O)O)C(=O)N[C@@H](Cc1ccccc1)C(=O)N[C@H](C(=O)N[C@@H](CCC(=O)O)C(=O)N[C@@H](Cc1c[nH]c2ccccc12)C(=O)N[C@@H](CC(C)C)C(=O)N[C@@H](CC(C)C)C(=O)N[C@@H](CO)C(=O)N[C@@H](C)C(N)=O)C(C)C)C(=O)O) [Compound 9: H-H-Ac4c-HGTFTSDYSKYLDS-K(Hexadecanoyl-isoGlu)-AAHDFVEWLLSA-NH2]	0.33	0.21	0.2	0.07
H-H[Ac3c]QGTFTSDYSKYLDSK([γGlu-Palmitoyl])AAHDFVEWLLSA-NH2 (SMILES CCCCCCCCCCCCCCCC(=O)N[C@@H](CCC(=O)NCCCC[C@H](NC(=O)[C@H](CO)NC(=O)[C@H](CC(=O)O)NC(=O)[C@H](CC(C)C)NC(=O)[C@H](Cc1ccc(O)cc1)NC(=O)[C@H](CCCCN)NC(=O)[C@H](CO)NC(=O)[C@H](Cc1ccc(O)cc1)NC(=O)[C@H](CC(=O)O)NC(=O)[C@H](CO)NC(=O)[C@@H](NC(=O)[C@H](Cc1ccccc1)NC(=O)[C@@H](NC(=O)CNC(=O)[C@H](CCC(N)=O)NC(=O)C1(NC(=O)[C@@H](N)Cc2c[nH]cn2)CC1)[C@@H](C)O)[C@@H](C)O)C(=O)N[C@@H](C)C(=O)N[C@@H](C)C(=O)N[C@@H](Cc1c[nH]cn1)C(=O)N[C@@H](CC(=O)O)C(=O)N[C@@H](Cc1ccccc1)C(=O)N[C@H](C(=O)N[C@@H](CCC(=O)O)C(=O)N[C@@H](Cc1c[nH]c2ccccc12)C(=O)N[C@@H](CC(C)C)C(=O)N[C@@H](CC(C)C)C(=O)N[C@@H](CO)C(=O)N[C@@H](C)C(N)=O)C(C)C)C(=O)O) [Compound 3: H-H-Ac3c-QGTFTSDYSKYLDS-K(Hexadecanoyl-isoGlu)-AAHDFVEWLLSA-NH2]	–	0.27	0.62	3.27
H-HAQGTFTSDYSKYLDEK([γGlu-Palmitoyl])AAKDFIEWLESA-NH2 [Compound 11: H-HAQGTFTSDYSKYLDE-K(Hexadecanoyl-isoGlu)-AAKDFIEWLESA-NH2]	0.14	–	0.69	–

Reference: patent publication US9988429B2, “Glucagon analogues” (Zealand Pharma A/S, priority 2013, dated 2018)
